Measurements reported in article doi:10.1101/2024.11.03.621741 (bioRxiv, 2024).

B1: GST-FIGNL1-dNLS (domain or fragment)
chain: AGKKFKDSLLEPALASVVIHKEATVFDLPKFSVCGSSQESDSLPNSAHDRDRTQDFPESNRLKLLQNAQPPMVTNTARTCPTFSAPVGESATAKFHVTPLFGNVKKENHSSAKENIGLNVFLSNQSCFPAACENPQRKSFYGSGTIDALSNPILNKACSKTEDNGPKEDSSLPTFKTAKEQLWVDQQKKYHQPQRASGSSYGGVKKSLGASRSRGILGKFVPPIPKQDGGEQNGGMQCKPYGAGPTEPAHPVDERLKNLEPKMIELIMNEIMDHGPPVNWEDIAGVEFAKATIKEIVVWPMLRPDIFTGLRGPPKGILLFGPPGTGKTLIGKCIASQSGATFFSISASSLTSKWVGEGEKMVRALFAVARCQQPAVIFIDEIDSLLSQRGDGEHESSRRIKTEFLVQLDGATTSSEDRILVVGATNRPQEIDEAARRRLVKRLYIPLPEASARKQIVINLMSKEQCCLSEEEIEQIVQQSDAFSGADMTQLCREASLGPIRSLQTADIATITPDQVRPIAYIDFENAFRTVRPSVSPKDLELYENWNKTFGCGK

Key:
[1] = biological target: MMS22L-TONSL complex (recombinant, purified) (human, UniProt Q6ZRQ5;Q96HA7); experiment: pull-down
Chain of MMS22L-TONSL complex (recombinant, purified) (Q6ZRQ5 whole entry, chain 1 of 2): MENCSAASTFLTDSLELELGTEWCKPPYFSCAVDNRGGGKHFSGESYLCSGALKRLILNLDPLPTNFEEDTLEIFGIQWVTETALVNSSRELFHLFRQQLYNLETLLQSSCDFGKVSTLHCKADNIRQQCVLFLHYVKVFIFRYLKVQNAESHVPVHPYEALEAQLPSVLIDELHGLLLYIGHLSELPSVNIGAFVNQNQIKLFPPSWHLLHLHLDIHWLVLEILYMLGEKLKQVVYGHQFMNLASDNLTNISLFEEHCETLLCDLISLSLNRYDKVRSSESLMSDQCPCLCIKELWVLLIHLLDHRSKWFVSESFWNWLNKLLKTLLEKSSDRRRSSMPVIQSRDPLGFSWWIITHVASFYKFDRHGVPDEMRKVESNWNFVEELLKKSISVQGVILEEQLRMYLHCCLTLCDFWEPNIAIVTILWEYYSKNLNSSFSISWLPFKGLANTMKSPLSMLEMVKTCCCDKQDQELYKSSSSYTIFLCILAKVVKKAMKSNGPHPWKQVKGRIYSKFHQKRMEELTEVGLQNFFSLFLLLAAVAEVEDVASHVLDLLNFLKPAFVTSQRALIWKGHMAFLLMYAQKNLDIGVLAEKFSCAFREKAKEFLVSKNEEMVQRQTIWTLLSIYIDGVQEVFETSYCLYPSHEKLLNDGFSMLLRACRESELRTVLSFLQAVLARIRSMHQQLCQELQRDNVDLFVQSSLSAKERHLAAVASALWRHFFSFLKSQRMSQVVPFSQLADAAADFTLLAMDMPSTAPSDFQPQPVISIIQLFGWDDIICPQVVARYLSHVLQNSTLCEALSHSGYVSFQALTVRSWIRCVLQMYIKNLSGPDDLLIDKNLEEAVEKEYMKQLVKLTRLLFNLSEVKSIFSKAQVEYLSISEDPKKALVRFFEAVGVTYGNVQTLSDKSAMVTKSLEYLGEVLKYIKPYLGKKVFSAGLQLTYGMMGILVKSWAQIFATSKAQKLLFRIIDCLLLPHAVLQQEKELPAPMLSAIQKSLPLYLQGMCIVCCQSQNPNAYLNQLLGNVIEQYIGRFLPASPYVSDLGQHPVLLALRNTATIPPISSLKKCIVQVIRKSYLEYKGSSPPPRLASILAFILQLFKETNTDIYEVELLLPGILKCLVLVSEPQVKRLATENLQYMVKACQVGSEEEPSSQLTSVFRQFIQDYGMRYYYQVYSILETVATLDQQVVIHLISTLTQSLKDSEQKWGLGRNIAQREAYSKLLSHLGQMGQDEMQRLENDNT
Chain of MMS22L-TONSL complex (recombinant, purified) (Q96HA7 whole entry, chain 2 of 2): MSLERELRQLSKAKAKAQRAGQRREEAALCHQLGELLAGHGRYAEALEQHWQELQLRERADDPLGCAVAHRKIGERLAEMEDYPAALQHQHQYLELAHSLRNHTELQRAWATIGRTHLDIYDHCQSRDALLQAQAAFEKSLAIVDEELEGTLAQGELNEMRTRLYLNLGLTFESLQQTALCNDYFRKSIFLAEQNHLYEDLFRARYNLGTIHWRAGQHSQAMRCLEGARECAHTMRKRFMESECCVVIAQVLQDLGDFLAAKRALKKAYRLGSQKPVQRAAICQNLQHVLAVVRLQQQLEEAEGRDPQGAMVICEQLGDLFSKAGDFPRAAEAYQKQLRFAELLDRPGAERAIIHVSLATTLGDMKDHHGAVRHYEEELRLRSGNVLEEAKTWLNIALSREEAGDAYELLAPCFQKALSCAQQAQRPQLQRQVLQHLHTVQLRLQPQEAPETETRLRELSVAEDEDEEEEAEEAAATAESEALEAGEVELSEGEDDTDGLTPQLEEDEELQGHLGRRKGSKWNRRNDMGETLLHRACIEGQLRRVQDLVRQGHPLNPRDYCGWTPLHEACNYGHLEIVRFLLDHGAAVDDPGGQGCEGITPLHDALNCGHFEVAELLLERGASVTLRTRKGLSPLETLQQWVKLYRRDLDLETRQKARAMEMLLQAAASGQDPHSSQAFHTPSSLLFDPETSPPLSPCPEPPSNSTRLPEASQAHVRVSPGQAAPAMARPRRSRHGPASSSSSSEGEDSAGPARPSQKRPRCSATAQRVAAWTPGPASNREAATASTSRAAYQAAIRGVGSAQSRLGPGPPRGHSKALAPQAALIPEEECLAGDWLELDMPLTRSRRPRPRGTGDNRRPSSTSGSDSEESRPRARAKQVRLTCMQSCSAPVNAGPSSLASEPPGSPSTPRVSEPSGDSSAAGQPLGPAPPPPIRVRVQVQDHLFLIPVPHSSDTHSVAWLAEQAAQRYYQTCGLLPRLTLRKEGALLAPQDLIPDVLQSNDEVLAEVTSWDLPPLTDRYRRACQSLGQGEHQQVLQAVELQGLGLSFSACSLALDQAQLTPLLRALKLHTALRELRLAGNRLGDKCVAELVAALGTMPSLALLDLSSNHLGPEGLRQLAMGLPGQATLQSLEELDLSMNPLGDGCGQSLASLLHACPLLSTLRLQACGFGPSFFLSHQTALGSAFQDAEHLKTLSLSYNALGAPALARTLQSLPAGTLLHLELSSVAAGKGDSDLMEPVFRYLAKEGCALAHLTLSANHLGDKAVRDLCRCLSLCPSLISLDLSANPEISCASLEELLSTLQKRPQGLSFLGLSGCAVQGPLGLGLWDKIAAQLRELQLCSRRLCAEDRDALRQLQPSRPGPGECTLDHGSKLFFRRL

GST-FIGNL1-dNLS = biological target: B1; experiment: pull-down

| binding result [1] | binding result (GST-FIGNL1-dNLS) | Binder |
| --- | --- | --- |
| binds | – | B1 |
| – | binds | RAD51 (wild type, recombinant) (natural protein) MAMQMQLEANADTSVEEESFGPQPISRLEQCGINANDVKKLEEAGFHTVEAVAYAPKKELINIKGISEAKADKILAEAAKLVPMGFTTATEFHQRRSEIIQITTGSKELDKLLQGGIETGSITEMFGEFRTGKTQICHTLAVTCQLPIDRGGGEGKAMYIDTEGTFRPERLLAVAERYGLSGSDVLDNVAYARAFNTDHQTQLLYQASAMMVESRYALLIVDSATALYRTDYSGRGELSARQMHLARFLRMLLRLADEFGVAVVITNQVVAQVDGAAMFAADPKKPIGGNIIAHASTTRLYLRKGRGETRICKIYDSPCLPEAEAMFAINADGVGDAKD |
| – | binds | RAD51-K133R (natural protein) MAMQMQLEANADTSVEEESFGPQPISRLEQCGINANDVKKLEEAGFHTVEAVAYAPKKELINIKGISEAKADKILAEAAKLVPMGFTTATEFHQRRSEIIQITTGSKELDKLLQGGIETGSITEMFGEFRTGRTQICHTLAVTCQLPIDRGGGEGKAMYIDTEGTFRPERLLAVAERYGLSGSDVLDNVAYARAFNTDHQTQLLYQASAMMVESRYALLIVDSATALYRTDYSGRGELSARQMHLARFLRMLLRLADEFGVAVVITNQVVAQVDGAAMFAADPKKPIGGNIIAHASTTRLYLRKGRGETRICKIYDSPCLPEAEAMFAINADGVGDAKD |
